This note sets out measurements from paper doi:10.1101/2024.06.25.600625 (bioRxiv, 2024).

B1: C-terminally FlAsH-labeled p23 (natural protein)
chain: MQPASAKWYDRRDYVFIEFCVEDSKDVNVNFEKSKLTFSCLGGSDNFKHLNEIDLFHCIDPNDSKHKRTDRSILCCLRKGESGQSWPRLTKERAKLNWLSVDFNNWKDWEDDSDEDMSNFDRFSEMMNNMGGDEDVDLPEVDGADDDSQDSDDEKMPDLE
modifications: FlAsH-EDT2 label on the C-terminal tetra-cysteine tag
B3: human Hsp90α Y38F,Y61E,Y197E (natural protein)
chain: not shown
B5: human Hsp90α Y38F,Y61F,Y197E (natural protein)
chain: not shown
B6: human Hsp90α Y38E,Y61F,Y197E (natural protein)
chain: not shown

Among the targets are wild-type human Hsp90α (human, UniProt P07900 1-732); human Hsp90α Y38F (human, UniProt P07900 1-732, Y38F); human Hsp90α Y61E (human, UniProt P07900 1-732, Y61E); human Hsp90α Y61F (human, UniProt P07900 1-732, Y61F); human Hsp90α Y197E (human, UniProt P07900 1-732, Y197E); human Hsp90α Y197F (human, UniProt P07900 1-732, Y197F).
Holding throughout (test): fluorescence polarisation
A general note: In fluorescence polarisation assays a small probe gives low polarisation when free and higher when bound to something large.

For test [1], the target named is B3.
Test [2] addresses B6.
In test [3] the target is B5.
Test [4] concerns the target human Hsp90α Y38F,Y61F,Y197F (human, UniProt P07900 1-732, Y38F | Y61F | Y197F).
Test [5] deals with T1, N-terminally FlAsH-labeled CDC37 (UniProt Q16543 1-378, FlAsH-EDT2 label on the N-terminal tetra-cysteine tag).
T1 sequence: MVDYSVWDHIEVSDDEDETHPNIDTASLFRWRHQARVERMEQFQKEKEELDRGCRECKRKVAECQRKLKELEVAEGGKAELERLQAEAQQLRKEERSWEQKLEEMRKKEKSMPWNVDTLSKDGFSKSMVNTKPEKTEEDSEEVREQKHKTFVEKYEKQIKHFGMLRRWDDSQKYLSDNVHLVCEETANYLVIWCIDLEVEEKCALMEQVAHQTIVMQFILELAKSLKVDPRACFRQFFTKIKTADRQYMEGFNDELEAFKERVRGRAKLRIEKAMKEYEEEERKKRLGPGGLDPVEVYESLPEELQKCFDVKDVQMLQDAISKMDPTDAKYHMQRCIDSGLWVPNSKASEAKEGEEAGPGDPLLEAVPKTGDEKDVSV

For test [6], the target named is B1.

Consider B1, for which the binding result (in the test with wild-type human Hsp90α; in test [1]; in test [2]; with human Hsp90α Y38F; with human Hsp90α Y61E; with human Hsp90α Y61F) was “binds” each time. Besides, the binding result (with human Hsp90α Y197E; with human Hsp90α Y197F; in test [3]; in test [4]) was “binds” throughout.

B2: unlabeled p23 (natural protein)
chain: MQPASAKWYDRRDYVFIEFCVEDSKDVNVNFEKSKLTFSCLGGSDNFKHLNEIDLFHCIDPNDSKHKRTDRSILCCLRKGESGQSWPRLTKERAKLNWLSVDFNNWKDWEDDSDEDMSNFDRFSEMMNNMGGDEDVDLPEVDGADDDSQDSDDEKMPDLE
On to B2, for which the binding result with wild-type human Hsp90α is on record as “binds”.
B3: the “fold increase of KD against all other Hsp90 variants” value in [5] worked out at 2 fold.

B4: human Hsp90α Y38E (natural protein)
chain: not shown
As for B4, the “fold increase of KD (reference not named, wild type implied)” value in test [6] worked out at 3.5 fold.
Turning to B5, the “fold increase of KD against all other Hsp90 variants” value in test [5] is 2 fold.
For B6, the “fold increase of KD against all other Hsp90 variants” value in test [5] amounted to 2 fold.
